Measured values published in PMC2762480.

Experiments:
[1] = biological target: s-dEGFRΔV (Drosophila EGF receptor extracellular region, domains I to IV) (Drosophila melanogaster); assay: AUC
[2] = biological target: s-dEGFRΔV/Spitz complex (Drosophila melanogaster) (UniProt Q01083); assay: AUC

s-dEGFRΔV (Drosophila EGF receptor extracellular region, domains I to IV) (domain or fragment)
Kd [1]: 40 µM

s-dEGFRΔV/Spitz complex (from UniProt Q01083 29-143)
stoichiometry N [2]: 2
